In patent US20260116991A1 (HAINAN SIMCERE ZAIMING PHARMACEUTICAL, published 2026):
Numbering of substitutions follows the chain as printed.

B1: F1.73.9 human-murine chimeric antibody (antibody, human IgG1, kappa, V domains shown)
VH: QVQLKQSGAELVRPGASVKLSCKASGYTFTDYYINWVKQRPGQGLEWIARIYPGSGNTYYNEKFKGKATLTAEKSSSTAYMQFSSLTSEDSAVYFCACSTYYTMDYWGQGTSVTVSS
VL: QIVLTQSPAIMSASLGERVTMTCTASSGVSSSYLHWYQQKPGSSPKLWIYTTSNLASGVPARFSGSGSGTSYSLTISSMEAEDAATYYCHQYHRSPYTFGGGTKLEIKR
B2: F1.2.14 human-murine chimeric antibody (antibody, human IgG1, kappa, V domains shown)
VH: RVQLQQSGAELVKPGASVRMSCKASGYTFTAYSIEWMKQNLGKSLEWIGNFRPYNDDTKYNENFKGRATLTVEKSSATVYLELSRLTSDDSAVYYCARSGPTDYFDYWGQGTTLIVSS
VL: DIQMTQSPASLSASVGETVTITCRASDNIYSYLAWYQQKQGQSPQLLVYNAKTLAEGVPSRFSGSGSVTQFSLKIISLQPEDFGTYYCQHHFGTPRTFGGGTKLEIKR
B3: F1.57.21 human-murine chimeric antibody (antibody, human IgG1, kappa, V domains shown)
VH: QVQLQQSGAELARPGASVKLSCKASGYTFTSYGISWVKQITGQGLEWIGEIYPRSESTYYNEKFKGKATLTADKSSSTAYMELRSLTSEDSAVYFCARDYGNIYSFAYWGQGTLVTVSA
VL: B2 VL with A25T, D27E, Q42K, V68G, I76N, T85S, F92Y, R96L, G100A, I106L
B4: F1.21.8 human-murine chimeric antibody (antibody, human IgG1, kappa, V domains shown)
VH: EVQLQQSGPELVKPGASVKISCKTSGFLFTGHYMHWVKSSHGNILDWIGYIYPYNAISFYNQKFKGKATLTVDKSSNTAYMELRSLTSEDSAVYYCARGDYGNYVTAYWGQGTLVTVSA
VL: DVLMTQTPLSLPVSLGDQASISCRSSQSIVHSSGNTYLEWYLQKPGQSPKLLIYKVSNRFSGVPDRFSGSGSGTDFTLKISRVEAEDLGVYYCFQGSHLPWTFGGGTKLDIKR
B5: F1.42.8 human-murine chimeric antibody (antibody, human IgG1, kappa, V domains shown)
VH: HVQLQQPGAELVKPGASVKLSCKASGYTFTSYWMHWVRQRPGQGLEWIEMIHPNSGSTNYNEKFKSKATLTVDKSSSTAYMQLSSLTSEDSAVYYCARGNYNSSLYAMDYWGQGTSVTVSS
VL: DIQMTQTTSSLSASLGDRVTISCSASQGISNYLNWYQQKPDGTVKLLIYYASNLHSGVPSRFSGSGSGTAYSLTISNLEPEDIATYYCQQYSILPYTFGGGTKLEIKR
B6: F1.41.17 human-murine chimeric antibody (antibody, human IgG1, kappa, V domains shown)
VH: EVQLVESGGDSVKPGGSLKLSCAASGFTFSSYGMSWVRQTPDKRLEWVATINSGGSYTYYQDSVKGRFTISRDNAKNTLYLQMSSLKSEDTAIYYCVRHHYGSSYDYFDYWGQGTTLTVSS
VL: DIVMTQAAPSVPVMPGESVSISCRSSKSLLHSNGNTHLYWFLQRPGQSPQLLIYRMSNLASGVPDRFSGSGSGTAFTLRISRVEAEDVGVYYCMQHLEYPLTFGAGTKLELKR
B7: F1.78.24 human-murine chimeric antibody (antibody, human IgG1, kappa, V domains shown)
VH: QVQLQQSGAELVKPGASVKMSCKASGYTFTTYPIEWMKQNHGKSLEWIGNFHPYNDDTNYNVKFKGKATLTVEKSSSTVYLELSRLTSDDSALYYCARRREYYGSFDVWGTGTTVTVSS
VL: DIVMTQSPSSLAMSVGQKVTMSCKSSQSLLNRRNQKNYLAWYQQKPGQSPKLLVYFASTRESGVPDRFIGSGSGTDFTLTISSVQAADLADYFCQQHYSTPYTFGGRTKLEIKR
B8: hAb005LH2L1b (antibody, human IgG1, V domains shown)
VH: EVQLVQSGAEVKKPGASVKVSCKASGYTFTDYEMHWVRQAPGQGLEWMGAIDPETGNTAYIQKFKGRVTLTTDKSTSTAYMELRSLRSDDTAVYYCTRFYSYSHWGQGTTVTVSS
VL: DIVMTQTPLSLPVTPGEPASISCRSSQSLVHSNRNTYLHWYLQKPGQSPQLLIYKVSNRFSGVPDRFSGSGSGTDFTLKISRVEAEDVGVYYCSQNTHVPPTFGGGTKVEIK
notes: Humanized F3.54.12
B9: hAb006LH1L1b (antibody, human IgG1, V domains shown)
VH: EVQLVQSGAEVKKPGSSVKVSCKASGYTFSDYEIHWVRQAPGQGLEWMGAIDPKTGNTAYNQKFMGRVTITADKSTSTAYMELSSLRSEDTAVYYCTRYFSFAYWGQGTLVTVSS
VL: B8 VL with S28T, L29F, R34A, H39Q, S94F, N96G, T97S, P101Y, G105Q, V109L
notes: Humanized F3.38.7
B10: hAb007LH1L1 (antibody, human IgG1, V domains shown)
VH: B9 VH with I34M, A50T, K54E, M65K, Y99P, F100Y, F102L, A103T
VL: B8 VL with L29F, R34G, N35D, H39Q, S94F, N96G, T97S, P101Y, G105Q, V109L
notes: Humanized F3.81.19
B11: hAb006LH3L1b (antibody, human IgG1, V domains shown)
VH: B9 VH with S30T, I70L
VL: B8 VL with S28T, L29F, R34A, H39Q, S94F, N96G, T97S, P101Y, G105Q, V109L
notes: Humanized F3.38.7
B12: hAb007LH1L1b (antibody, human IgG1, V domains shown)
VH: B9 VH with I34M, A50T, K54E, M65K, Y99P, F100Y, F102L, A103T
VL: B8 VL with L29F, N35D, H39Q, S94F, N96G, T97S, P101Y, G105Q, V109L
notes: Humanized F3.81.19
B13: hAb006LH2L1b (antibody, human IgG1, V domains shown)
VH: B9 VH with S30T
VL: B8 VL with S28T, L29F, R34A, H39Q, S94F, N96G, T97S, P101Y, G105Q, V109L
notes: Humanized F3.38.7
B14: hAb007LH2L1b (antibody, human IgG1, V domains shown)
VH: B9 VH with S30T, I34M, A50T, K54E, M65K, Y99P, F100Y, F102L, A103T
VL: B8 VL with L29F, N35D, H39Q, S94F, N96G, T97S, P101Y, G105Q, V109L
notes: Humanized F3.81.19
B15: hAb006LH3L1c (antibody, human IgG1, V domains shown)
VH: B9 VH with S30T, I70L
VL: B8 VL with S28T, L29F, H39Q, S94F, N96G, T97S, P101Y, G105Q, V109L
notes: Humanized F3.38.7
B16: hAb007LH1L1c (antibody, human IgG1, V domains shown)
VH: B9 VH with I34M, A50T, K54E, M65K, Y99P, F100Y, F102L, A103T
VL: B8 VL with L29F, R34A, N35D, H39Q, S94F, N96G, T97S, P101Y, G105Q, V109L
notes: Humanized F3.81.19
B17: hAb006LH2L1 (antibody, human IgG1, V domains shown)
VH: B9 VH with S30T
VL: B8 VL with S28T, L29F, R34G, H39Q, S94F, N96G, T97S, P101Y, G105Q, V109L
notes: Humanized F3.38.7

The binders below were run against T1, GPC3 endogenously expressed on HepG2 cells (UniProt P51654 25-554) (assay: FACS on HepG2 cells;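 further: flow cytometric binding of chimeric antibodies to cells, read as mean fluorescence intensity, EC50 obtained by curve fitting of the MFI data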).
T1 construct: whole, on cells
Procedure: (§1) The desired cells were expanded to a logarithmic growth phase in a T-75 cell culture flask, the medium was removed by pipetting, and the cells were washed twice with a PBS buffer, and digested with trypsin. Then a complete medium was added to stop the digestion, and the cells were blown into a single cell suspension. After counting, the cells were centrifuged, and the cell pellet was resuspended with an FACS buffer (PBS+2% fetal bovine serum) to 2×10⁶ cells/mL. The cell resuspension solution was added to a 96-well FACS reaction plate at 50 μl/well, and a chimeric antibody sample to be tested was added at 50 μl/well for incubation at 4° C. for 1 h. […] After the plate was centrifuged and washed 3 times with a PBS buffer, 100 μl of the resulting solution was assayed and analyzed by FACS (FACS Canto™, purchased from BD Biosciences). Data analysis was performed by software (FlowJo) to obtain the mean fluorescence intensity (MFI) of the cells. Then, analysis was performed by software (GraphPad Prism8), data were fitted, and EC₅₀ values were calculated.

Binder	EC50	Max MFI
B1	0.25 nM	1880 MFI
B2	2.13 nM	1860 MFI
B3	0.71 nM	1650 MFI
B4	0.36 nM	2190 MFI
B5	0.21 nM	2090 MFI
B6	0.2 nM	1990 MFI
B7	0.31 nM	2120 MFI

Each binder was assayed against T2, human GPC3 on CHO-K1-human GPC3 cells (clone CHOK1-hGPC3.2B5) (human, UniProt P51654 25-554) (assay: FACS on CHOK1-hGPC3.2B5 cells;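 further: flow cytometry binding of chimeric antibodies to the cells, read out as mean fluorescence intensity, with the half-maximal concentration derived by curve fitting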).
T2 construct: whole, on cells; Stably transfected CHO-K1 clone 2B5
Procedure: as §1

Binder	EC50	Max MFI
B1	0.66 nM	8850 MFI
B2	1.67 nM	8280 MFI
B3	1.36 nM	9360 MFI
B4	0.68 nM	10700 MFI
B5	0.4 nM	9420 MFI
B6	0.55 nM	9930 MFI
B7	0.76 nM	10400 MFI

What follows are binders tested against T3, monkey GPC3 on HEK293T-monkey GPC3 cells (monkey) (assay: FACS on HEK293T-monkey GPC3 cells).
T3 construct: whole, on cells

Binder	EC50	Max MFI
B8	2.42 nM	22800 MFI
B9	1.73 nM	31800 MFI
B10	4.1 nM	36300 MFI
B11	1.78 nM	32500 MFI
B12	12.4 nM	35400 MFI
B13	1.83 nM	31500 MFI
B14	13.2 nM	35800 MFI
B15	4.06 nM	91600 MFI
B16	8.8 nM	73600 MFI
B17	1.65 nM	32800 MFI

Each binder was assayed against T4, human GPC3-His protein (human, UniProt P51654 25-559) (assay: ELISA, coated human GPC3, antibody 1 nM;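 further: antigen coated at 1 µg/mL on 96-well plates, antibody bound for 2 h at 37 °C, detected with HRP-labeled secondary antibody and TMB, absorbance read at 450 nm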).
T4 construct: Bought protein; also called human GPC3 protein; not shown: His tag

Binder	OD450 nm
B1	1.33 OD450
B2	1.24 OD450
B3	1.5 OD450
B4	1.71 OD450
B5	2.02 OD450
B6	1.68 OD450
B7	0.72 OD450

Each binder was assayed against T4, human GPC3-His protein (assay: ELISA, coated human GPC3, antibody 10 nM;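 further: plate coated with antigen at 1 µg/mL, antibodies bound 2 h at 37 °C, detected via HRP-conjugated secondary antibody and TMB substrate, absorbance read after acid stop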).

Binder	OD450 nm
B1	1.74 OD450
B2	1.47 OD450
B3	2.02 OD450
B4	1.7 OD450
B5	2.31 OD450
B6	1.59 OD450
B7	1.07 OD450

Each binder was assayed against T4, human GPC3-His protein (assay: ELISA, coated human GPC3, antibody 0.1 nM;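 further: antigen coated on 96-well plates at 1 µg/mL, antibody bound 2 h at 37 °C, detected with HRP-labeled secondary antibody and TMB substrate, acid-stopped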).
Procedure: (§2) The specific method is described as follows: The antigen protein was diluted with PBS to a final concentration of 1 μg/mL, and the diluent was added to a 96-well ELISA plate at 50 μL/well. The plate was sealed with a plastic film and incubated at 4° C. overnight, washed twice with PBS the next day, and a blocking solution [PBS+2% (w/w) BSA] was added for blocking at room temperature for 2 h. […] After incubation at 37° C. for 2 h, the plate was washed 3 times with PBS. A horseradish peroxidase (HRP)-labeled secondary antibody (purchased from Merck, Cat. No. AP113P) was added for incubation at 37° C. for 1 h, and the plate was washed 5 times with PBS. A TMB substrate was added at 50 μL/well for incubation at room temperature for 10 min, then a stop solution (1.0M HCl) was added at 50 μL/well. An ELISA plate reader (Multimode Plate Reader, EnSight, purchased from Perkin Elmer) was used to read OD_{450 nm} values, with results as shown in Table 4 to Table 6, FIG. 1A, FIG. 1B, and FIG. 1C.

Binder	OD450 nm
B1	0.86 OD450
B2	0.61 OD450
B3	0.8 OD450
B4	0.9 OD450
B5	1.22 OD450
B6	0.97 OD450
B7	0.66 OD450

What follows are binders tested against T4, human GPC3-His protein (assay: ELISA, coated human GPC3, antibody 100 nM;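 further: antibodies bound to antigen-coated 96-well plates (1 µg/mL), 2 h at 37 °C, detected with HRP-labelled secondary antibody and TMB substrate, absorbance read at 450 nm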).
Procedure: as §2

Binder	OD450 nm
B1	1.46 OD450
B2	1.84 OD450
B3	2.35 OD450
B4	2 OD450
B5	2.56 OD450
B6	1.51 OD450
B7	0.45 OD450

Each binder was assayed against T4, human GPC3-His protein (assay: ELISA, coated human GPC3, antibody 0.01 nM;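 further: Plate-bound antigen coated at 1 µg/mL, antibody incubated 2 h at 37 °C, binding detected by HRP-conjugated secondary antibody with TMB substrate, read as absorbance at 450 nm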).
Procedure: as §2

Binder	OD450 nm
B1	0.23 OD450
B2	0.17 OD450
B3	0.21 OD450
B4	0.25 OD450
B5	0.3 OD450
B6	0.24 OD450
B7	0.19 OD450

Each binder was assayed against T4, human GPC3-His protein (assay: ELISA, coated human GPC3, antibody 0.001 nM).

Binder	OD450 nm
B1	0.11 OD450
B2	0.1 OD450
B3	0.11 OD450
B4	0.12 OD450
B5	0.13 OD450
B6	0.11 OD450
B7	0.12 OD450

The binders below were run against T4, human GPC3-His protein (assay: ELISA, coated human GPC3, antibody 0.0001 nM).

Binder	OD450 nm
B1	0.09 OD450
B2	0.08 OD450
B3	0.08 OD450
B4	0.08 OD450
B5	0.1 OD450
B6	0.08 OD450
B7	0.09 OD450

These binders were tested against T5, human GPC3-His protein (human, UniProt P51654 25-559, limits assumed) (assay: SPR, antibody captured on Protein A chip, human GPC3-His injected, 1:1 Langmuir model;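 further: flow cell at 25 °C, antigen injected for 240 s at five twofold dilutions starting at 200 nM, dissociation followed up to 600 s, double-referenced sensorgrams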).
T5 construct: also called human GPC3 protein; not shown: His tag

Binder	Kd	koff	kon
B8	7.85 nM	0.00213 s⁻¹	271000 M⁻¹ s⁻¹
B9	7.41 nM	0.00125 s⁻¹	168000 M⁻¹ s⁻¹
B10	1.05 nM	0.000114 s⁻¹	109000 M⁻¹ s⁻¹
B11	8.4 nM	0.00136 s⁻¹	162000 M⁻¹ s⁻¹
B12	2.21 nM	0.000228 s⁻¹	103000 M⁻¹ s⁻¹
B13	9.28 nM	0.00128 s⁻¹	138000 M⁻¹ s⁻¹
B14	3.58 nM	0.000315 s⁻¹	88000 M⁻¹ s⁻¹
B15	3.15 nM	0.001 s⁻¹	319000 M⁻¹ s⁻¹
B16	4.28 nM	0.000397 s⁻¹	92700 M⁻¹ s⁻¹
B17	4.3 nM	0.000678 s⁻¹	158000 M⁻¹ s⁻¹
